Source: the supplement of paper PMC12764529
± gives the half width of the 95% confidence interval.

Experiment: folding stability dG unfold from chymotrypsin proteolysis; higher = more stable
Summary of the method: (§1)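 Sequencing followed digestion of designed mini-proteins with trypsin and chymotrypsin, each at 11 concentrations in threefold dilutions together with a no-protease condition. The mini-proteins were under 80 residues, had no cysteine, sat in a PA-tagged cDNA display construct, and were kept only if AlphaFold2 dimer inter-PAE was above 15. From the counts, Bayesian fitting gave K50, and unfolding free energy was derived against a sequence-predicted unfolded-state K50 and a shared folded-state K50, per protease or combined.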
For “EMTEEELREKLPELSPEELEELARKLAEELGIEEVEEVEVVSVKPDGTIEVKVKLKDGEELTIEIPLEELLS [r1_435_TrROS_Hall]”, the “folding stability dG unfold” value was 2.07 ± 0.15 kcal/mol.
With “SAGGSAGGSAGGSPVAAKTLSKSTSLLPNGKVKTSTTTAFPTGETTTTTTTTPLSLTLTSAGGSAGGSAGGS [r10_1206_JUSTAS]” the “folding stability dG unfold” value was 0.158 ± 0.17 kcal/mol.
In the case of “SAGGSGSQEVDIDFKFPPNFNMDELAKKIEELPGIDIKPDRYDPENGTYKITINVNDPQAVREIIRSAGGSA [r2_305_TrROS]”, the “folding stability dG unfold” value is reported as -0.497 ± 0.69 kcal/mol.
For “SAGGMTPEELREKAKKLAEELAKKLKEKYPNVKVEVEVDEETKKVKIKVKNKKTGKTYEITINLEELLSAGG [r13_354_TrROS_Hall]”, the “folding stability dG unfold” value was 3.94 ± 0.22 kcal/mol.
In the case of “SAGGATITVEPAPGDSVVALAEFGDSLALVTFYPKEATAKVTVFGPNGIPSTATFTIKPGEELVITGSAGGS [r8_11_TrMRF]”, the “folding stability dG unfold” value is reported as 1.59 ± 0.096 kcal/mol.
With “SMIKPGEKIKKIKLKLENGEEVEATLVKNEDGSLVLFIKVDGEVYVFTFNPDGEIKIEKVSKEEAEKLLKSA [r9_1144_TrROS_Hall]” the “folding stability dG unfold” value was 3.79 ± 0.046 kcal/mol.
In the case of “SEKIVIEFPNPEEATVELIKSIIKPYLEPGEKVKIKVFSKDGKPLFEKELEFNEVEEVPKEKDYLIVIEKSA [r9_264_TrMRF]”, the “folding stability dG unfold” value is reported as 1.3 ± 0.1 kcal/mol.
For “SAGGSAGGGKRLEITRTYFIPPDDIDKLKDLPGIREVTPHRMPDGYYMITVTIRIPISADQLKASAGGSAGG [r6_155_TrROS]”, the “folding stability dG unfold” value was 2.1 ± 0.084 kcal/mol.
With “SAGGSAGGSAGKTVQIWIPPDEITPEALKSLAREGWKIKPIEIRRNPEDGWISITIELKPSAGGSAGGSAGG [r11_345_TrROS]” the “folding stability dG unfold” value was 0.451 ± 0.36 kcal/mol.
With “SAGGSAGGSSVTRLIYLEDGTVLVVKLTPKPLVLPDGKPAFVLGFEVVEIRPVKDPKEALKALSAGGSAGGS [r12_915_TrMRF]” the “folding stability dG unfold” value was 1.3 ± 0.081 kcal/mol.
For “SAGGSAGGSAGGDKNGKKELRPEVKIKVKIEAEIEPFRYPNNGMPMWILKISIEITSIDSAGGSAGGSAGGS [r10_877_TrROS]”, the “folding stability dG unfold” value was 4.75 ± 0.18 kcal/mol.

Experiment: folding stability dG unfold (combined trypsin and chymotrypsin); higher = more stable
Summary of the method: as §1
In the case of “SAGGIEELAKALGIEEVEVTSIDPETREVTVRVRVRGPDGEERTLTVKIRLEPAPPPVRTFSEEELKSSAGG [r13_608_TrROS_Hall]”, the “folding stability dG unfold” value is reported as 1.45 ± 0.087 kcal/mol.
With “SAMKEGEEYEPVEKKKITIKNKKTNKTIEIEVVRNKKTNKYIVKITTKDGKKIEIVVSKEELEKLLKKLSAG [r14_240_TrROS_Hall]” the “folding stability dG unfold” value was 3.01 ± 0.26 kcal/mol.
In the case of “SAGGSAKMVLVKIKVEGMSVEEVKKLLEEAGAKVVKIDEEKKVIIVEVSPEKAEELAKKLGFEVEVSAGGSA [r15_731_TrROS_Hall]”, the “folding stability dG unfold” value is reported as 3.45 ± 0.086 kcal/mol.
With “SGMMRTIVLKIPIEEARKLLGDPNKPVSEEELKALVEKLAKEKGLDVEEIKVEKLPDGTYVVTVLVPDLGSA [r9_52_JUSTAS]” the “folding stability dG unfold” value was 3.81 ± 0.099 kcal/mol.
For “SAKLAKELAEELAKEILPKFPNIKAVKVEVEPLGDYAIATIIWEKENGKPIISKAIIEKNKKILKVDISSAG [r14_719_TrMRF]”, the “folding stability dG unfold” value was 1.19 ± 0.19 kcal/mol.
In the case of “SAGGMVKLTVYETPDSYTVTIDLGDKPYTIPVPPGLSPEEAAARAVEELQKAFPDEEVVVESVEYVARSAGG [r13_884_JUSTAS]”, the “folding stability dG unfold” value is reported as 1.19 ± 0.068 kcal/mol.
In the case of “SAGGSAGGSAGPGLSITTTITTTTPAKLPNGTAPLRTTTTTIITELKPADPNNPVILANTSAGGSAGGSAGG [r11_236_JUSTAS]”, the “folding stability dG unfold” value is reported as 0.746 ± 0.048 kcal/mol.
With “SAGGSAGGSAGIRLDSLEEALKYIRKNFPPGRTVEIRVYDGDKPVEITVQVDENGDIKIVSAGGSAGGSAGG [r17_69_TrROS]” the “folding stability dG unfold” value was 3.19 ± 0.092 kcal/mol.
In the case of “SAGGSAGGSAGGPKAPGDKAVPATVEVRVTEYAVVPGLGEKLEKLPEKTFKATFVFFNKSAGGSAGGSAGGS [r10_122_TrMRF]”, the “folding stability dG unfold” value is reported as 0.286 ± 0.092 kcal/mol.
For “SAGSSMLDSLTVDTEVTLDPAKGTVLVKTTTTLPDGTVTRTVTTVTVEPLNPPPPPPPRFDPRTGEALESAG [r5_816_JUSTAS]”, the “folding stability dG unfold” value was 0.549 ± 0.14 kcal/mol.
In the case of “SAGGSGMTVEVSVDPSTGTIRIKIKYGDKEYEVTAPVTRLPDGTYAVELKISAPNGPLLETKEITLPLSAGG [r13_59_JUSTAS]”, the “folding stability dG unfold” value is reported as 2.06 ± 0.087 kcal/mol.
In the case of “SAGGSEGMTVTELVKPPDSDEVLYVATDSAGNTFTLPGSLVKEALENGKTVEAPRPDGTAATLVLRSAGGSA [r2_301_JUSTAS]”, the “folding stability dG unfold” value is reported as 3.1 ± 0.34 kcal/mol.
With “SAGKIKVYYDPKLGRIIEIPLPNGKRIRIYLPKNKLIIVAEDPEGNKAIPIEIETKIGDIIKIIKEIAGSAG [r5_820_TrMRF]” the “folding stability dG unfold” value was 3.16 ± 0.18 kcal/mol.
With “SAGGSAMIVTEDPNGVLTTTENGKVTTTTVTPVPRPDPFSDKTFTEYVVTTTTTPVAPSPITPNTLSAGGSA [r15_515_JUSTAS]” the “folding stability dG unfold” value was 0.823 ± 0.046 kcal/mol.
For “SAGGSAGGSKPEIRKIKIYTKEGGKKIIPVNGTVIEIDGKKYKVKPNDKIKVPKNVKKIEPEGSAGGSAGGS [r12_779_TrMRF]”, the “folding stability dG unfold” value was 0.028 ± 0.22 kcal/mol.
With “SAGGSAGGSAGPVKTVEVEIPGMSEEELLALLPPGVKRVEIEREEVEPGRVRLRIKVYEESAGGSAGGSAGG [r11_1002_TrROS_Hall]” the “folding stability dG unfold” value was 0.977 ± 0.059 kcal/mol.
With “SAGGGDLEVELVEEREFTFPDGLRRRLLVVRFPDGFLAIPVYVRPPGGGWRLLARFVLRIGPPRPEEGSAGG [r13_494_TrMRF]” the “folding stability dG unfold” value was 3.82 ± 0.08 kcal/mol.
With “SAGGGEKWKIKFKDAEAYINAPEGKVEIVPPDGSKITIDFPPDIPPEVVAKLLAEELGFDEAEIEPVESAGG [r13_852_TrMRF]” the “folding stability dG unfold” value was 0.168 ± 0.14 kcal/mol.
With “SAGGGSVTVSLEGNTTYVRISREDGPERTYTFPQPNGEPLTFTEAPGRPGLITITRPATGEPVVLALSAGGS [r16_198_JUSTAS]” the “folding stability dG unfold” value was 0.219 ± 0.18 kcal/mol.
For “SAGGSAGGSAGGGLEEIKEAIKKLPENVKEITIKLKDGSTIKIRVEKDKDGKYKITIEPSAGGSAGGSAGGS [r10_1017_TrROS_Hall]”, the “folding stability dG unfold” value was 2.5 ± 0.22 kcal/mol.
With “SAGGHHHHHHHHIDGKFRSEEEAKKLKEEIEKELRAKGYTDIEVEVEVKVEEPPPRRPRPGSPAYTLGSAGG [r13_6_JUSTAS]” the “folding stability dG unfold” value was 0.955 ± 0.34 kcal/mol.
